Consider one substance from publication PMC7359698.

This assay deals with ephrin-A1-S6 (human ephrin-A1 with an internal S6 peptide tag, GPI-anchored) (human) (UniProt P20827). The assay can be described thus: FRET or BRET; heteroFRET by flow cytometry (sensitised emission, compensated; efficiency from median fluorescence intensities); live HEK293 cells in suspension in DPBS + 0.5% BSA, S6-tagged receptor labelled with A547 and A647; for T-cadherin-S6 also followed in time after 10 μg/mL adiponectin. Background: In BRET a luciferase serves as donor, and the signal depends on an acceptor being close.

Regarding “ephrin-A1-S6 (human ephrin-A1 with an internal S6 peptide tag, GPI-anchored) (from UniProt P20827 19-182) (ligand)”, the FRET efficacy was found to be 14%.
